Measured values from doi:10.1101/2023.05.12.540488 (bioRxiv, 2023).
Where two headings read alike, the source gives them in different places.

Legend:
Assay in all cases: crystal structure
crystal structure [1] = target: the molecule itself
crystal structure [2] = target: the molecule itself; remark: listed apart in the source
crystal structure [3] = target: the molecule itself; remark: listed apart in the source
crystal structure [4] = target: the molecule itself; remark: listed apart in the source

B1: S-adenosyl-L-homocysteine hydrolase from Methanococcus maripaludis (enzyme)
chain: MSNVKDMSLAPSGHLKMEWAKRHMPVLCRIAEEFKNDKPFEGLTIGMALHLEAKTAILAETLLEGGAKIVITGCNPLSTQDDVAAACVEKGMEVYAWRGETNEEYYENLNKVLDSNPDIIIDDGADLIFLIHTERTELIGKIMGGCEETTTGIIRLKSMAEEGALKFPVVNVNDAYTKHLFDNRYGTGQSAMDGIIRTTNLLIAGKNVVVGGYGWCGRGVASRAAGHGANVIITEVNPIRALEAKMDGFTVLKMEEAAKIGDIFVTTTGCKDILRMEHFLLMKDGAVLSNAGHFDNEINKNDLKELSKSVKEARFNIEEYDLGNKKIYLLGEGRLVNLACADGHPCEVMDMSFANQALSAKFIKENKGKLENEVYEIPYEQDFKIALLKLHSMGADIDELSPEQRKYLSDWKEGT
stoichiometry N (crystal structure [1]): 4

B2: S-adenosyl-L-homocysteine hydrolase from Pyrococcus furiosus (enzyme)
chain: MDCGKDYCVKDLSLAEEGWKKIDWVSRFMPVLQYIKREFEEKKPFKGVRIAATLHLEMKTAFLLLTLKAGGAEVSAAASNPLSTQDDVVAALAKAGVKVYAIRGESREQYYEFMHKALDIRPNIIIDDGADMISLVHKERQEMLDEIWGGSEETTTGVIRLRAMEKAGILKFPVIAVNDSYMKYLFDNRYGTGQSTWDGIMRATNLLIAGKNVVVVGYGWCGRGIAMRARGLGATVIVVEVDPIKALEARMDGFLVMDMKEAAKIGDIFVTATGNIKCIRREHFELMKDGAIMANAGHFDVEIWKPDLEKLAVEINNPRPNVTEYKLKDGRRLYLLADGRLVNLVAADGHPAEIMDMSFALQAKAAEYIKDNHERLEPKVYILPREIDEMVARIKLESMGIKIEELTEEQKKYLESWEHGT
stoichiometry N (crystal structure [2]): 4

B3: S-adenosyl-L-homocysteine hydrolase from Sulfolobus acidocaldarius (enzyme)
chain: MDYRVKDLSLAEQGRKQIEWAELHMPALMEIRKRFNAEKPLDGIRIGAVLHVTKETAVLVETLKAGGAEIALAGSNPLSTQDDVAAGLAKNGIHVYAWRGETEKDYYDNIREILKYEPHVIMDDGGDLHAYVHENNLTSKIVGGTEETTTGVIRLKAMEEEKVLKYPVIAVNNAFTKYLFDNRIGTGQSTIDGILRATNILIAGKVAVVIGYGWVGRGIASRFKGMGARVIVVESSPFRALEALMDGFDVMTMNRASEIGDIFVTATGNLNVVSRDHILRMKDGAVLANSGHFNVEIDVKGLKEISVETREVRQNLEEYKLRNGKRIYLLADGRLVNLVAAEGHPSEVMDLSFCNQALSVEHLIKNKGKLENKVYNVPIEIDEQVARLKLKALGIEIEELTIEQKEYIKQWKYGT
stoichiometry N (crystal structure [3]): 4

B4: S-adenosyl-L-homocysteine hydrolase from Mus musculus (enzyme)
chain: MSDKLPYKVADIGLAAWGRKALDIAENEMPGLMRMREMYSASKPLKGARIAGCLHMTVETAVLIETLVALGAEVRWSSCNIFSTQDHAAAAIAKAGIPVFAWKGETDEEYLWCIEQTLHFKDGPLNMILDDGGDLTNLIHTKYPQLLSGIRGISEETTTGVHNLYKMMSNGILKVPAINVNDSVTKSKFDNLYGCRESLIDGIKRATDVMIAGKVAVVAGYGDVGKGCAQALRGFGARVIITEIDPINALQAAMEGYEVTTMDEACKEGNIFVTTTGCVDIILGRHFEQMKDDAIVCNIGHFDVEIDVKWLNENAVEKVNIKPQVDRYWLKNGRRIILLAEGRLVNLGCAMGHPSFVMSNSFTNQVMAQIELWTHPDKYPVGVHFLPKKLDEAVAEAHLGKLNVKLTKLTEKQAQYLGMPINGPFKPDHYRY
binding result (crystal structure [4]): binds
